{"source": "the nanobody polyreactivity screen of Harvey et al. (2022)"}
{"test": "yeast display, Sf9 membrane polyspecificity reagent, FACS + sequencing; frameworks hold sequencing errors", "outline": "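After 36–48 hours of galactose induction, yeast (Saccharomyces cerevisiae BJ5465) displaying a synthetic nanobody library were stained at 4 °C for 1 hour with 10% biotinylated, detergent-solubilized Sf9 membrane reagent. Streptavidin microbeads enriched the stained cells before FACS sorting into low and high (top ~1%) gates on anti-HA and streptavidin fluorescence. Each clone's polyreactivity label reflects its gate of origin.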"}
{"sequence": "QVQLVESGGGLVQAGGSLRLSCAASGNIFSYYAMGWYRQATGIERELVAAISGRGTRTYYADSVKGRFSISRDNAMNTVYLQMNSLNPEDTAVYYCATEVRRLNEFDYWGQGTQVTVSS", "polyreactivity (PSR sort gate)": "high polyreactivity"}
{"sequence": "QVQLVESGGGLVQAGGSLRLSCAASGNIFTNNAMGWYRQAPGKERELVAAISSSGGRTFYADSVKGRFTITRDNAKNTVNLQMNSLKPEDTSVYYCNKVASTRVSYLDMEYWGQGTQVTVSS", "polyreactivity (PSR sort gate)": "high polyreactivity"}
{"sequence": "QVQLVESGGGLVQAGGSLRLSCAASGNIFTPYTMGWYRQAPGKERELVASINNAGTTKYADSVKGRFTISRDNAKNTVYLQMNSLKPEDTAVYFCAAQRRHALSSYPKHYYWGQGTQVTVSS", "polyreactivity (PSR sort gate)": "low polyreactivity"}
{"sequence": "QVQLVESGGGLVQAGGSLRLSCAASGNIFTYNAMGWYRQAPGKERELVAAISWTADSTYYADSVKGRFTISRDNAKNTVYLQMNSLKPEDTAVYYFAADSQYADYGYWGQGTQVTVSS", "polyreactivity (PSR sort gate)": "high polyreactivity"}
{"sequence": "QVQLVESGGGLVQAGGSLRLSCAASGNIFTYYVMGWYRQAPGKERELVAAISRRGGSTYYADSVKGRFTISRDNAKNTVYLQMNSLKPEDTAVYYCAKKYPRDMDYWGQGTQVTVSS", "polyreactivity (PSR sort gate)": "high polyreactivity"}
{"sequence": "QVQLVESGGGLVQAGGSLRLSCAASGNIFVLYAMGWYRQAPGKERELVASITSDGITYYADSVKGRFTISRDNAKNTVYLQMNSLKPEDTAVYYCAVDRSYRYLPRGDYWGQGTQVTVSS", "polyreactivity (PSR sort gate)": "low polyreactivity"}
{"sequence": "QVQLVESGGGLVQAGGSLRLSCAASGNIFVYYAMGWYRQAPGKERELVAAISFRGGTTYYADSVKGRFTISRDNAKNTVYLQMNSLKPEDTAVYYCAKDIFQIGYRRYDSWGQGTQVTVSS", "polyreactivity (PSR sort gate)": "low polyreactivity"}
{"sequence": "QVQLVESGGGLVQAGGSLRLSCAASGNIFWGNAMGWYRQAPGKERELVATITTGGSTNYADSVKGRFTISRDNAKNTVYLQMNSLKPEDTAVYYCNKRTTTASHLTSDYWGQGTQVTVSS", "polyreactivity (PSR sort gate)": "low polyreactivity"}
{"sequence": "QVQLVESGGGLVQAGGSLRLSCAASGNIFWWDAMGWYRQAPGKERELVAAITSDSTTYYADSVKGRFTISRDNAKNTVYLQMNSLKPEDTAVYYCAAYSYGGQGVDYGYWGQGTQVTVSS", "polyreactivity (PSR sort gate)": "low polyreactivity"}
{"sequence": "QVQLVESGGGLVQAGGSLRLSCAASGNIFYINAMGWYRQAPGKERELVAAISSGGRTNYADSVKGRFTISRDNAKNTVYLQMNSLKPEDTAVYYCNADGWYAWRYYAPGGYDYWGQGTQVTVSS", "polyreactivity (PSR sort gate)": "low polyreactivity"}
{"sequence": "QVQLVESGGGLVQAGGSLRLSCAASGNIFYKYAMGWYRQAPGKERELVAAITWRVVRTYYADSVKGRFTISRDNAKNTVYLQMNSLKPEDTAVYYCAALSRQSGDYWGQGTQVTVSS", "polyreactivity (PSR sort gate)": "high polyreactivity"}
{"sequence": "QVQLVESGGGLVQAGGSLRLSCAASGNIFYLNTMGWYRQAPGKERELVASISRDGGRTYYADSVKGRFTISRDNAKNTVYLQMNSLKPEDTAVYYCAAVVLHHFTEVGQHYYWGQGTQVTVSS", "polyreactivity (PSR sort gate)": "low polyreactivity"}
{"sequence": "QVQLVESGGGLVQAGGSLRLSCAASGNIFYLYAMGWYRQAPGKERELVARITIGGSTYYADSVKGRFTISRDNAKNTVYLQMNSLKPEDTAVYYCAARGPYYRYYYWGQGTQVTVSS", "polyreactivity (PSR sort gate)": "high polyreactivity"}
{"sequence": "QVQLVESGGGLVQAGGSLRLSCAASGNIFYNGMGWYRQAPGKERELVAAIRGSGGRTYADSVKGRFTISRDNAKNTVYLQMNSLKPEDTAVYYCATRRWYAYGVYYWGQGTQVTVSS", "polyreactivity (PSR sort gate)": "high polyreactivity"}
{"sequence": "QVQLVESGGGLVQAGGSLRLSCAASGNIFYQYAMGWYRQAPGKEREFVAAISISGTSTYADSVKGRFTISRDNAKNTVDLQLNSLKPEDTEVYWGQGTQVTVSS", "polyreactivity (PSR sort gate)": "low polyreactivity"}
{"sequence": "QVQLVESGGGLVQAGGSLRLSCAASGNIFYRYAMGWYRQAPGKERELVAAIRSGSSTNYADSVKGRFTISRDNAKNTVYLQMNSLKPEDTAVYYCAARSKYTHSRQSDYWGQGTQVTVSS", "polyreactivity (PSR sort gate)": "low polyreactivity"}
{"sequence": "QVQLVESGGGLVQAGGSLRLSCAASGNIFYSYAMGWYRQAPGKARELVATIRSGGSTYYADSVKGRFTISRDKAKNTVYLQMNSLKPEDTAVYYCAAPYPYRYFEYYWGQGTQVNVSS", "polyreactivity (PSR sort gate)": "low polyreactivity"}
{"sequence": "QVQLVESGGGLVQAGGSLRLSCAASGNIFYSYAMGWYRQAPGKERELVAAISSSGGGTYYADSVKGRFTISRDNAKNTVYLEMNSLKPEDTAVYYCATTARPTRYSSVRYYYWGQGTQVSVSS", "polyreactivity (PSR sort gate)": "high polyreactivity"}
{"sequence": "QVQLVESGGGLVQAGGSLRLSCAASGNIFYSYAMGWYRQAPGNERELVAAISWGGGRTYYADSVKGRFTISRDNAKNTVYLQMNSLKPEDTAVYYCNKVTRGGYDYWGQGTQVTVSS", "polyreactivity (PSR sort gate)": "high polyreactivity"}
{"sequence": "QVQLVESGGGLVQAGGSLRLSCAASGNIFYVYAMGWYRQAPGKEREFVAAIRGSGGSTYYADSVKGRFTISRDNAKNTVYLQMNSLIQEDTAVYYCDAVAWEGSGSEMYSWGQGTQVTVSS", "polyreactivity (PSR sort gate)": "low polyreactivity"}
{"sequence": "QVQLVESGGGLVQAGGSLRLSCAASGNIFYVYAMGWYRQAPGKERELVAVISRNDGSTYYADSVKARFTISRDNAKNTVYLQMNSLKPEDTAVYYCNAEWYFWGQGTQVTVSS", "polyreactivity (PSR sort gate)": "low polyreactivity"}
{"sequence": "QVQLVESGGGLVQAGGSLRLSCAASGNIFYYNAMGWSRQGPGKEMELVAAISSGGSTNYADSVKGRFTISRDNAKNTVYLQMNSLKPEDTAVYYCAANYVTIGSGYYGYDYWGQGTQVTVSS", "polyreactivity (PSR sort gate)": "low polyreactivity"}
{"sequence": "QVQLVESGGGLVQAGGSLRLSCAASGNIICGNAMGWYRQAPGKERELVAAISRRSGSTYYADSVKGRFTISRDNAKNTVYLQMNSLKPEDTAVYYCNTAGRVGTYDYWGQGTQVTVSS", "polyreactivity (PSR sort gate)": "high polyreactivity"}
{"sequence": "QVQLVESGGGLVQAGGSLRLSCAASGNIIDANAMGWYRQAPGKERELVAAITSSGGSTYYADSVKGRFTISRDNAKNTVYLQMNSLKPEDTAVYYCAKSHAIYYWWDESWGQGTQVTVSS", "polyreactivity (PSR sort gate)": "low polyreactivity"}
{"sequence": "QVQLVESGGGLVQAGGSLRLSCAASGNIIWGNAIGWYRQAPGKERELVAAISRRSGSTYYADSVKGRFTISRDIAKNTVYLQMNSLKPEDTAVYYCNTAGRVGTYDYWGQGTQVTVSS", "polyreactivity (PSR sort gate)": "high polyreactivity"}
{"sequence": "QVQLVESGGGLVQAGGSLRLSCAASGNILGYYAMGWYRQAPGKERELVADINWDGGSTYYADSVKGRFTISRDNAKNTVYLQMNSLKPEDTAVYYCNAEVGITWWFREVDYWGQGTQVTVSS", "polyreactivity (PSR sort gate)": "high polyreactivity"}
{"sequence": "QVQLVESGGGLVQAGGSLRLSCAASGNILPVYAMGWYRQAPGKEREFVAAITSRGGSTYYADSVKGRFTISRDNAKITVYLQMNSLKPDDTAVYYCAAKYLRAYGYWGQGTQVTVSS", "polyreactivity (PSR sort gate)": "high polyreactivity"}
{"sequence": "QVQLVESGGGLVQAGGSLRLSCAASGNILTTYAMGWYRQAPGKERELVAAIRWSDGSTYYADSVKGRFTISRDNAKNTVYLQMYSLKPEDNAVYYCAADYHYPTWQGGYHYGYWGQGTQVTVSS", "polyreactivity (PSR sort gate)": "high polyreactivity"}
{"sequence": "QVQLVESGGGLVQAGGSLRLSCAASGNILVSYTMGWSRQAPGKDTELVAAINSGGNTNYADSVKGRFTISRDNAKNTVYLQMNSLKPEDTAVYYCNAYTDSLWVYPFWIYRDYDDWGHGTQVTVSS", "polyreactivity (PSR sort gate)": "low polyreactivity"}
{"sequence": "QVQLVESGGGLVQAGGSLRLSCAASGNISPDYGMGWYRQAPGKERELVAVIRWSDDSTYYADSVKGRFTISRDYAKNSVYLQMNSLKPEDTAVYYCSTDDYDAIDLDYWGQGTQVTVSS", "polyreactivity (PSR sort gate)": "low polyreactivity"}
{"sequence": "QVQLVESGGGLVQAGGSLRLSCAASGNIYDPYAMGWYRQAPGKERELVARISSGGRTDYADSVKGRFTISRDNAKNTVYLQMNSLKPEDTAVYYCAADVLQAYYLTLFGYRYYLVDYWGQGTQVTVSS", "polyreactivity (PSR sort gate)": "low polyreactivity"}
{"sequence": "QVQLVESGGGLVQAGGSLRLSCAASGNIYNNYDMGWYRPAPGKERDLVARIDSGGSTNYADSVKGRFTISRDNAKNTVYLQMNCLKPEDTAVYYCAADFLSHWLLEMDYWGQGTQVTVSS", "polyreactivity (PSR sort gate)": "low polyreactivity"}
{"sequence": "QVQLVESGGGLVQAGGSLRLSCAASGNNFRSYAMGWYRQATGKERELVAAISGRGGSTYYADSVKGRFTISRDNAKNTVYLQMNSLKPEDTAVYYCAAESRRVNYANDYWGQGTQVTVSS", "polyreactivity (PSR sort gate)": "high polyreactivity"}
{"sequence": "QVQLVESGGGLVQAGGSLRLSCAASGNNLCRNAMGWYRQAPGKERELVATISSVGTYYADSVKGRFTISRDNAKNNVYVQMNSLKPEDTAVYSCNARGRRSGYISGYDYWGQGTQVTVSS", "polyreactivity (PSR sort gate)": "high polyreactivity"}
{"sequence": "QVQLVESGGGLVQAGGSLRLSCAASGNTFDIYAMGWYIQAPGKERELVAAISRRGGSTYYAESVKGRFTISRDNAKNTVYLQLNSLKPEDTAVYYCNTVYATRYDYWGQGTQVTVSS", "polyreactivity (PSR sort gate)": "high polyreactivity"}
{"sequence": "QVQLVESGGGLVQAGGSLRLSCAASGNTFDYYAMGWYRQAPGKERELVAAITRGGSTNYADSVKGRFTISRDNAKNTVYLQMNSLKPEDTAGYYCAAEQRAPRFADYDYWGQGTQVTVSS", "polyreactivity (PSR sort gate)": "low polyreactivity"}
{"sequence": "QVQLVESGGGLVQAGGSLRLSCAASGNTFDYYDMGWYSQAPGKERELVAAGSGGSTYYADSVKGRFTISRDNAKHTVYLQMNSLKPEDTAVYYCAARDRYYFGGMYYWGQGTQVTVSS", "polyreactivity (PSR sort gate)": "low polyreactivity"}
{"sequence": "QVQLVESGGGLVQAGGSLRLSCAASGNTFEFYAMGWYRQAPGKERELVAAISASGGRTYYADSVKGRFTISRDNAKNTVYLQMNSLKPEDTAVYYCAAVRKSTRFDYWGQGTQVTVSS", "polyreactivity (PSR sort gate)": "high polyreactivity"}
{"sequence": "QVQLVESGGGLVQAGGSLRLSCAASGNTFEYNAMGWYRQAPGKEREFVAAIDFSDGSTYYADSVKGRFTISRDNAKNTVYLQMNSLKPEDTAVYYCAGDYYSYFGNYYYWGQGTQVTVSS", "polyreactivity (PSR sort gate)": "high polyreactivity"}
{"sequence": "QVQLVESGGGLVQAGGSLRLSCAASGNTFFTYAMGWYRQAPGQERELVAVITSVGSTNYADSVKGLFTISRDNAKNTVYLQMNSLKPEDTAVYYCAAKGYRVYRYYRGRTYDYWGQGSQVTVSS", "polyreactivity (PSR sort gate)": "high polyreactivity"}
{"sequence": "QVQLVESGGGLVQAGGSLRLSCAASGNTFGAYTMGWYRQAPGKEREFVAAISYSGGITFYADSVKGRFTISRDNAKNTVYLQMNSLKPEDTAVYYCAARTYRYGYWYDYWGQGTQVTVSS", "polyreactivity (PSR sort gate)": "high polyreactivity"}
{"sequence": "QVQLVESGGGLVQAGGSLRLSCAASGNTFGPYAMGWYRQAPGKERELVAAITWTDTSTHYADSVKGRFTISRDNAKNTVYLQMNSLKPEDTAVYYCARVYYVNTYRYRAGYYYWGQRTQVTVSS", "polyreactivity (PSR sort gate)": "high polyreactivity"}
{"sequence": "QVQLVESGGGLVQAGGSLRLSCAASGNTFGYNAMGWYRQAPGKERELVASITWSGGSTYYADSVKGRFTISRDNAKNTVYLQMNSLKPEDTAVYYCNADVRFDYWGQGTQVTVSS", "polyreactivity (PSR sort gate)": "low polyreactivity"}
